Results on 1 molecule are retold here after article PMC2674534.

The target of the series is Sox9 (UniProt Q04887 1-507). In words: EMSA. In general terms: In EMSA bound probe runs differently from free probe, usually more slowly.
Chain of Sox9 (Q04887 whole entry): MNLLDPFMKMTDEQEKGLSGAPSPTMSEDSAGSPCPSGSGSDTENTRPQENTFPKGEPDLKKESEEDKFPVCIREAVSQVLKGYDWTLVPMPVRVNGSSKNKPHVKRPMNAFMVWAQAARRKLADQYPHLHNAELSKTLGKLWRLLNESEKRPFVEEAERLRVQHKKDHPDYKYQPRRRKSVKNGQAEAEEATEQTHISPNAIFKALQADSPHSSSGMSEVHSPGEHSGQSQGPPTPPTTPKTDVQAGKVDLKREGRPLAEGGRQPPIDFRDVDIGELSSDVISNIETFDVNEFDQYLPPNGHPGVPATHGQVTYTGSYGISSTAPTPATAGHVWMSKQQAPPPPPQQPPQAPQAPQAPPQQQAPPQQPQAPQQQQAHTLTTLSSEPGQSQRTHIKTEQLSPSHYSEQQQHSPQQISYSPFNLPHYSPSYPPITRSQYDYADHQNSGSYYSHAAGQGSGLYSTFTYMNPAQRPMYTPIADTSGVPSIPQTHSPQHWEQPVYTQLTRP

B1: Col2a1 enhancer probe (Sox9-binding site) (dsDNA)
DNA 1: GCGCTTGAGAAAAGCCCCATTCATGAGAGGC
DNA 2: GCCTCTCATGAATGGGGCTTTTCTCAAGCGC
For B1, the binding result was “binds”.
